Consider one molecule from paper PMC12170906.

The target of the data set is RNAP-SigA holoenzyme (Mycobacterium tuberculosis, UniProt P9WGZ1;P9WGY9;P9WGY7;P9WGI1 1-347;1-1178;1-1316;1-528). In words: EMSA. The settings on record: protein: recombinant; chain copies: 2;1;1;1; blunt. Background: A gel shift assay detects complexes by their altered migration in electrophoresis.
Sequence of RNAP-SigA holoenzyme (P9WGZ1 whole entry, chain 1 of 4): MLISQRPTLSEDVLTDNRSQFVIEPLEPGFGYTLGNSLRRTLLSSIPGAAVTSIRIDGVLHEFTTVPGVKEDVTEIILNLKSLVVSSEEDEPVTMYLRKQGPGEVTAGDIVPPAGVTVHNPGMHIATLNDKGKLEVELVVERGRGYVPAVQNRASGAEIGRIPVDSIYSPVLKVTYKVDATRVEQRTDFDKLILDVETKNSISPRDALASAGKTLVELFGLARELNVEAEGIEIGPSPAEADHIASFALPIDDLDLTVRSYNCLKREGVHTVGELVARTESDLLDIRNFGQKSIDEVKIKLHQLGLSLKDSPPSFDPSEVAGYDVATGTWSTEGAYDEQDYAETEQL
Sequence of RNAP-SigA holoenzyme (P9WGY9 whole entry, chain 2 of 4): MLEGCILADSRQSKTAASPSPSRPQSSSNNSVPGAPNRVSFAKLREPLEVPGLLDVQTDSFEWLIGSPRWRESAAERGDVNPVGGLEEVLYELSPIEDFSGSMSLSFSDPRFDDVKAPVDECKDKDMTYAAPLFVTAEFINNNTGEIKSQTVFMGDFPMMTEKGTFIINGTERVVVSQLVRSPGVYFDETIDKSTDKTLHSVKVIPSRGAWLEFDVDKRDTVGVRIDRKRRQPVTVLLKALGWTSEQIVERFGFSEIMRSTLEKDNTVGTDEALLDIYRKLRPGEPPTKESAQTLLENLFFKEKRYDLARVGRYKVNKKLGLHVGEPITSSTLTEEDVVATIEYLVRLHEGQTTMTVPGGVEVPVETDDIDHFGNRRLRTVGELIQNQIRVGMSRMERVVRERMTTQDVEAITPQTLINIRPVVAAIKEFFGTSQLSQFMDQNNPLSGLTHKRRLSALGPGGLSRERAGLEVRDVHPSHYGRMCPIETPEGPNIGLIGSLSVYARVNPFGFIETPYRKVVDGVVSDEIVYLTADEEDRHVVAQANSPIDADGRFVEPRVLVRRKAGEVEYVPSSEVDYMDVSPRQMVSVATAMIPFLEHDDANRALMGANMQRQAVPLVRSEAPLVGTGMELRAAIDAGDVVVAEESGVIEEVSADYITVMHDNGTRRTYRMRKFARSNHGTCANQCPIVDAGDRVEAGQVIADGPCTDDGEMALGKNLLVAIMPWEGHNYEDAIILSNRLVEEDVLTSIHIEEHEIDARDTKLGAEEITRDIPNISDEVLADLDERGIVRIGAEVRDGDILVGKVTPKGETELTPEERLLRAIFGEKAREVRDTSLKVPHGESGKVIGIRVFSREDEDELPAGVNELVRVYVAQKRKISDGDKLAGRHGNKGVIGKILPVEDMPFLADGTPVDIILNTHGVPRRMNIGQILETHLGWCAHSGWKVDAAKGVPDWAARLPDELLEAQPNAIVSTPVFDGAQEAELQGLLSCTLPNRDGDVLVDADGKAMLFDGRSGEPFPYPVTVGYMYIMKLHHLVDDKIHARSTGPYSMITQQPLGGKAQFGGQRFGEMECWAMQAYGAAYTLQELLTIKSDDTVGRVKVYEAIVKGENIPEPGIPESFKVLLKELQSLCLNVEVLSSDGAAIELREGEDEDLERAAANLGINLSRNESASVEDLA
Sequence of RNAP-SigA holoenzyme (P9WGY7 whole entry, chain 3 of 4): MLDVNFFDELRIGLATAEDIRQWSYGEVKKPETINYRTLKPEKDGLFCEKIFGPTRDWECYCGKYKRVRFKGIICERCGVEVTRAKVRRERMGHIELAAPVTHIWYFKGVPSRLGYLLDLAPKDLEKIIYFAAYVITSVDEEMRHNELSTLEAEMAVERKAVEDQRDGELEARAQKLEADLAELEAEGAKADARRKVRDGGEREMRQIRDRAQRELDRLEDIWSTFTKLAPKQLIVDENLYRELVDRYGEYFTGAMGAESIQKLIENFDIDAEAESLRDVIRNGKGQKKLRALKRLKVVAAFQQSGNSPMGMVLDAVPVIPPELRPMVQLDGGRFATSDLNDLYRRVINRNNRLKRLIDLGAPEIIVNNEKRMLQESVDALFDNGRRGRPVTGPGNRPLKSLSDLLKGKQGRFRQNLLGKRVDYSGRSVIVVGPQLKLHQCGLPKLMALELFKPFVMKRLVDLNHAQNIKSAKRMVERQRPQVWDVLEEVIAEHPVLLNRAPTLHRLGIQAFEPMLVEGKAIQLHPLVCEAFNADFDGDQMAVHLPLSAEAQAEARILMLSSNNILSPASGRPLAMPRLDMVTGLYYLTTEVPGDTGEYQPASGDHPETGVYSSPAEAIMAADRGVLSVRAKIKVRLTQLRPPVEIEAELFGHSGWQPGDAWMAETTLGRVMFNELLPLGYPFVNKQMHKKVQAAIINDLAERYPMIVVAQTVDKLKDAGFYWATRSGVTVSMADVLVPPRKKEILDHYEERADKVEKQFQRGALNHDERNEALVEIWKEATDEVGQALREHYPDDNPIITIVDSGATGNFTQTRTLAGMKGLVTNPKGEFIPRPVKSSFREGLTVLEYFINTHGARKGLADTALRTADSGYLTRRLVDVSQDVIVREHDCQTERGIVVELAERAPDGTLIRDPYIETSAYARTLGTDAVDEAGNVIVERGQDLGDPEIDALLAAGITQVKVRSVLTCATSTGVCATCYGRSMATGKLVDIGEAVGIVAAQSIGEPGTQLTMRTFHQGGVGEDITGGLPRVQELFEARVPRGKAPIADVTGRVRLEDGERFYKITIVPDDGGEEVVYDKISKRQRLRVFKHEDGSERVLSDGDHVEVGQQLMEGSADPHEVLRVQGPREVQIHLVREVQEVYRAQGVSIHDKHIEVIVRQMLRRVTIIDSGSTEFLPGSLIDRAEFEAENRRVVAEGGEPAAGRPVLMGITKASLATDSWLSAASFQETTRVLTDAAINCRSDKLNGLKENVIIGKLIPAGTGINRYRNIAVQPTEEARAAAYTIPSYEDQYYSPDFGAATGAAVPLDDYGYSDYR
Sequence of RNAP-SigA holoenzyme (P9WGI1 whole entry, chain 4 of 4): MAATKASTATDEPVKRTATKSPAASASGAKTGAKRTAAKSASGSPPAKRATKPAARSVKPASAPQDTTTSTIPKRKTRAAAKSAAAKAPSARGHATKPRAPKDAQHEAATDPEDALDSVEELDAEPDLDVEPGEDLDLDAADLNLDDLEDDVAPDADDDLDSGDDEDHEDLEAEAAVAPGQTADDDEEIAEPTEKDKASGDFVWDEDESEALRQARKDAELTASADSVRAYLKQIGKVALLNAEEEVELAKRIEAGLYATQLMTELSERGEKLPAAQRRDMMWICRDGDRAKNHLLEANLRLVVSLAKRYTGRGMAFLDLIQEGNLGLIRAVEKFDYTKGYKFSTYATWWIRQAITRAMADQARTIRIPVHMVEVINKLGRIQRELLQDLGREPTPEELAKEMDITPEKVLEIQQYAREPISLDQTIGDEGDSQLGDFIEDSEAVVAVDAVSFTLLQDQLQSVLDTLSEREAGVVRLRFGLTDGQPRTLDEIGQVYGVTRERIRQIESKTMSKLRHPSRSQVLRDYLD

B1: rrnAP3/ADPr (non-template strand modified) (dsDNA)
DNA 1: CTATGGATGACCGAACCTGGTCTTGACTCCATTGCCGGATTTGTATTAGACTGGCAGGGTCGCCCCGAAGCGGGCGGAAACAAGCAAGCGTGTTGTTTGAGAACTC
DNA 2: GAGTTCTCAAACAACACGCTTGCTTGTTTCCGCCCGCTTCGGGGCGACCCTGCCAGTCTAATACAAATCCGGCAATGGAGTCAAGACCAGGTTCGGTCATCCATAG
modifications: ADP-ribosyl-thymidine on strand 1 (non-template; DarT; positions inferred near -10 in Fig 3A)
B1: the binding result was “binds”.
